From US20100297003A1 (TECNOGEN S C P A, published 2010)
Each block holds one molecule with its values, some of them ahead of it.

Assays:
[1] = molecular target: human tenascin C (human) (UniProt P24821); test: BIAcore on whole tenascin
[2] = molecular target: human tenascin C (human) (UniProt P24821); test: ELISA on tenascin C, biotinylated against non-biotinylated antibody
[3] = molecular target: T1, Tn (A(1-4)-D) fragment of human tenascin (human, UniProt P24821 1076-1711, limits assumed); test: ELISA on Tn A(1-4)-D fragment, biotinylated against non-biotinylated antibody
T1 construct: domain: A(1-4)-D
T1 sequence (looked up): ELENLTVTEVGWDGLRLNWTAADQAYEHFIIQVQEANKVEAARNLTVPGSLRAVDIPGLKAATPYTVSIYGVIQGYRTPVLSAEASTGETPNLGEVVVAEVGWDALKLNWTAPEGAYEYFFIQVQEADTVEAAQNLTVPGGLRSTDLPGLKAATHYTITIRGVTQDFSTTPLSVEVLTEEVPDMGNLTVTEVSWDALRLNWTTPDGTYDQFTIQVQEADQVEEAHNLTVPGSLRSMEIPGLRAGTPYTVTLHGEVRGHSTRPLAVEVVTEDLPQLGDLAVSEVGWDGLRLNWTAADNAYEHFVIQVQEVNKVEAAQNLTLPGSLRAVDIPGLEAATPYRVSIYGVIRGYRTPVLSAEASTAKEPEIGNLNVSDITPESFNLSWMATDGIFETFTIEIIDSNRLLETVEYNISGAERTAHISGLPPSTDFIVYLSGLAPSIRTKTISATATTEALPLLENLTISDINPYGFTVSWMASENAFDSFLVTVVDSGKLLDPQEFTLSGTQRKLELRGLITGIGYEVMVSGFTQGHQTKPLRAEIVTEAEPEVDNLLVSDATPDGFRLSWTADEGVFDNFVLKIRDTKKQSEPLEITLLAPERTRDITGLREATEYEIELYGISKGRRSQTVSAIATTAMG

[4] = molecular target: human tenascin C (human) (UniProt P24821); test: BIAcore on tenascin C
[5] = molecular target: T1, Tn (A(1-4)-D) fragment of human tenascin; test: BIAcore on Tn (A1-4-D) fragment
[6] = molecular target: T2, EGF-like fragment of human tenascin (human, UniProt P24821 174-621, limits assumed); test: Western blot
T2 construct: domain: EGF-like
T2 sequence (looked up): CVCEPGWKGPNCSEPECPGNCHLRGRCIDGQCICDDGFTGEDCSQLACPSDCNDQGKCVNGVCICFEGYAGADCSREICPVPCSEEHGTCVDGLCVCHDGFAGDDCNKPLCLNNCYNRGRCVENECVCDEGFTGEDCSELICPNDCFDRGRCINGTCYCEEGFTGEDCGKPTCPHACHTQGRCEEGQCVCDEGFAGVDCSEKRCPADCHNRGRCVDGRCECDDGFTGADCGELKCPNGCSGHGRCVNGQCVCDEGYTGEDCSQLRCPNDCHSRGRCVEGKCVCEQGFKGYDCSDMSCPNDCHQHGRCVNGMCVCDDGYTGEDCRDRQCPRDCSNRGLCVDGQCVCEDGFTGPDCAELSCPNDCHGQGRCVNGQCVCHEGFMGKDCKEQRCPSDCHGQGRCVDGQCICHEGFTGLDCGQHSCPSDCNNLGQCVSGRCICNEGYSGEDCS

[7] = molecular target: human tenascin C (human) (UniProt P24821); test: ELISA on plates coated with tenascin C, reference BC-2
[8] = molecular target: T1, Tn (A(1-4)-D) fragment of human tenascin; test: ELISA on plates coated with Tn A(1-4)-D fragment, reference BC-2
Method: The immunoreactivity of ST2485 was evaluated in comparison with BC-2 by ELISA assay on tenascin C and on the Tn A₍₁₋₄₎-D fragment, as shown in FIG. 7. The antibodies ST2485 and BC-2 and the normal mouse immunoglobulins (nMIgG) were dispensed at increasing concentrations on plates sensitised with tenascin C (a) or with the Tn A₍₁₋₄₎-D fragment (b); the addition of the secondary antimouse antibody labelled with alkaline phosphatase and the related chromogenic substrate (pNPP) made it possible to determine the dose-response curve of the antibodies. The amount of ST2485 necessary to obtain 1.0 OD is approximately 13 times less than the amount of BC-2 on whole tenascin (a), and approximately 10 times less than the amount of BC-2 on the Tn (A1-4-D) fragment (b).

[9] = molecular target: human tenascin C (human) (UniProt P24821); test: competitive ELISA on tenascin C; competitor biotinylated BC-2 at fixed concentration
[10] = molecular target: human tenascin C (human) (UniProt P24821); test: ELISA on plates coated with tenascin C, alkaline phosphatase anti-mouse antibody, pNPP
[11] = molecular target: T1, Tn (A(1-4)-D) fragment of human tenascin; test: competitive ELISA on plates coated with Tn A(1-4)-D fragment; unlabelled antibody at increasing concentration against biotinylated BC-2 at a fixed concentration, HRP-streptavidin/TMB
Method: The biotinylated antibody BC-2, at a concentration established in preliminary experiments, is dispensed with non-biotinylated BC-2 (curve 1) or ST2485 (curve 2) in increasing concentrations on plates sensitised with the antigen tenascin C (a), or Tn A₍₁₋₄₎-D fragment (b). The binding of the biotinylated antibody is measured after addition of HRP-streptavidin and the related chromogenic substrate TMB.

[12] = molecular target: human tenascin C (human) (UniProt P24821); test: BIAcore on whole tenascin, reference biotinylated BC-2

Chain of human tenascin C (human) (P24821 23-2201): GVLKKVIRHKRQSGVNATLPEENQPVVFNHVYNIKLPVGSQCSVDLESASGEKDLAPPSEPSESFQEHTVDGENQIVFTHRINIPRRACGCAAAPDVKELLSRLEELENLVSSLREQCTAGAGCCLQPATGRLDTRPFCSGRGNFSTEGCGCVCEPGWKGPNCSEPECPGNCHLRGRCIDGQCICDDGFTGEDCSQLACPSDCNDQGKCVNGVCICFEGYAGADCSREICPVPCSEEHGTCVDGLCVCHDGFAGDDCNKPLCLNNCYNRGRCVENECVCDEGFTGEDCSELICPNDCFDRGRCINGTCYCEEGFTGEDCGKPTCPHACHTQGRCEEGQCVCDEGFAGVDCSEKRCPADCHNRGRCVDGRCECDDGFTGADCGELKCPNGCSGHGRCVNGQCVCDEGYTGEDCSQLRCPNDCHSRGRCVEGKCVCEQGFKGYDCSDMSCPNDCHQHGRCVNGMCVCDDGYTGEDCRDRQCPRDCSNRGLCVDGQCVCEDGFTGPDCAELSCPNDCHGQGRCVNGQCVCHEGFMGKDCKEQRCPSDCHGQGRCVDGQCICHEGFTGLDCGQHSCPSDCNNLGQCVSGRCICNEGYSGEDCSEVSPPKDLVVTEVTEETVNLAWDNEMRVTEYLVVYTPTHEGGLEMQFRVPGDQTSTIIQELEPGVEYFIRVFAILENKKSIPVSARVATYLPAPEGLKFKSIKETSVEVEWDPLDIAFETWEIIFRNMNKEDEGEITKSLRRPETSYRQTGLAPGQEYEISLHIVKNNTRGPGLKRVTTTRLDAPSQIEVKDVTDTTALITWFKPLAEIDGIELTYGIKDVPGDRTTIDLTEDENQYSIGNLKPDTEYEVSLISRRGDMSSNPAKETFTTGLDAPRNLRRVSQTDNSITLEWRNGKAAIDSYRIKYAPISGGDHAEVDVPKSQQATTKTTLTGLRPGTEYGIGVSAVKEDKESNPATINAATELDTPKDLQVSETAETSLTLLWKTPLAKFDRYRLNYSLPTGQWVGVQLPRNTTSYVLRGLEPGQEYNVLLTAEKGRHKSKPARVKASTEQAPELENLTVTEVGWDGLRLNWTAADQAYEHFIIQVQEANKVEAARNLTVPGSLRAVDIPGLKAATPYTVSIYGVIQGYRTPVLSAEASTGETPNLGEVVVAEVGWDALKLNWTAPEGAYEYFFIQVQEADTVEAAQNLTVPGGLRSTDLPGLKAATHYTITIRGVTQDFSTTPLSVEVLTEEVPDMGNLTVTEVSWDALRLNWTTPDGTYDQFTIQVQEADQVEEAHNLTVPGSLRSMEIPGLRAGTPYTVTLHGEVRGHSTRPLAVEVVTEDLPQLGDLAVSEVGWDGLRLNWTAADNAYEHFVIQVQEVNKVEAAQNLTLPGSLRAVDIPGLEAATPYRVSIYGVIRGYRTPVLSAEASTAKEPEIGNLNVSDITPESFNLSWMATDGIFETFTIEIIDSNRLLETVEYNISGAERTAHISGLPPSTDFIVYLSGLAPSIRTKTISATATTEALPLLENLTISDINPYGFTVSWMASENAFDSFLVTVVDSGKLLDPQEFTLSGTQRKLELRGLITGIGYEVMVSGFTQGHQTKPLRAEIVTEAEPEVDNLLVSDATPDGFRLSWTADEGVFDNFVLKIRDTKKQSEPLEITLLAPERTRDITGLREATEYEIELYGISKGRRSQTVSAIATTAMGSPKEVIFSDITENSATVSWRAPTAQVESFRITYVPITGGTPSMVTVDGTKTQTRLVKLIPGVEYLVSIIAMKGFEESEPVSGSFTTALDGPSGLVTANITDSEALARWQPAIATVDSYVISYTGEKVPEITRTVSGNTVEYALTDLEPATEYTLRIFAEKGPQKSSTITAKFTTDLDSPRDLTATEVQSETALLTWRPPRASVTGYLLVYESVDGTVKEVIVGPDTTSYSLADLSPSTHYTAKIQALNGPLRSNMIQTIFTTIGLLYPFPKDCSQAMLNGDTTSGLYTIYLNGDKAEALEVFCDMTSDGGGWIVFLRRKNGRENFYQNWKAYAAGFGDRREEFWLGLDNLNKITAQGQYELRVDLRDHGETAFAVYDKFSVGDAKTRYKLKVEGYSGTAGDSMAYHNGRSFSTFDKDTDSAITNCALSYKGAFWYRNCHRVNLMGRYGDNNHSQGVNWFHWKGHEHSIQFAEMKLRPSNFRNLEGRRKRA

- Kd [1]: 371 nM
- residual immunoreactivity [2]: 88%
- residual immunoreactivity [3]: 83%
Molecule: biotinylated BC-2 (antibody)

- Kd [4]: 254 nM
- Kd [5]: 73.9 nM
Molecule: anti-tenascin monoclonal antibody BC-2

- binding result [6]: no binding
- Kd [4]: 0.977 nM
- Kd [5]: 0.972 nM
- koff [5]: 0.000319 s⁻¹
- kon [5]: 328000 M⁻¹ s⁻¹
- fold less antibody than BC-2 needed to obtain 1.0 OD [7]: 13 fold
- fold less antibody than BC-2 needed to obtain 1.0 OD [8]: ~10 fold
- % inhibition of BC-2 binding [9]: 40%
- EC50 (read off the curve) [10]: 0.02 µg/mL
- IC50 (read off the curve) [11]: ~0.03 µg/mL
B1: anti-human tenascin monoclonal antibody ST2485 (antibody, V domains shown)
VH: EVQLQQSGPELVKPGASMKISCKASGYSFTGYTMNWVKQSHGKNLEWIGLINPHNGGTTYNQKFKGKATLTVDKSSNTAYMELLSLTSEDSAVYYCTRPGGYYWFFDVWGAGTTVTVSS
VL: QIVLSQSPAILSASPGEKVTMTCRANSSVRFMHWYQQKPGSSPKPWIYATSNLASGVPARFSGSGSGTSYSVTISRVEAEDAATYYCQQWSSNSPRTFGGGTKVEIRR
modifications: part of the light chain is N-glycosylated (glycosylated and non-glycosylated variants; site not numbered)
notes: Mouse immunoglobulin of IgG1/k isotype from hybridoma cST2485

- Kd [1]: 2.88 nM
- fold greater affinity than biotinylated BC-2 [12]: 100 fold
- residual immunoreactivity [2]: 76%
B2: biotinylated ST2485 (antibody, V domains shown)
VH: EVQLQQSGPELVKPGASMKISCKASGYSFTGYTMNWVKQSHGKNLEWIGLINPHNGGTTYNQKFKGKATLTVDKSSNTAYMELLSLTSEDSAVYYCTRPGGYYWFFDVWGAGTTVTVSS
VL: QIVLSQSPAILSASPGEKVTMTCRANSSVRFMHWYQQKPGSSPKPWIYATSNLASGVPARFSGSGSGTSYSVTISRVEAEDAATYYCQQWSSNSPRTFGGGTKVEIRR
modifications: biotinylated, 8.3 biotins/molecule of antibody (sites not given)
